B1: simian virus 40 (SV40) wild-type VP1, in virus-like particles (natural protein)
chain: APTKRKGSCPGAAPKKPKEPVQVPKLVIKGGIEVLGVKTGVDSFTEVECFLNPQMGNPDEHQKGLSKSLAAEKQFTDDSPDKEQLPCYSVARIPLPNINEDLTCGNILMWEAVTVKTEVIGVTAMLNLHSGTQKTHENGAGKPIQGSNFHFFAVGGEPLELQGVLANYRTKYPAQTVTPKNATVDSQQMNTDHKAVLDKDNAYPVECWVPDPSKNENTRYFGTYTGGENVPPVLHITNTATTVLLDEQGVGPLCKADSLYVSAVDICGLFTNTSGTQQWKGLPRYFKITLRKRSVKNPYPISFLLSDLINRRTQRVDGQPMIGMSSQVEEVRVYEDTEELPGDPDMIRYIDEFGQTTTRMQ

How the values were obtained:
[1] = biological target: avian polyomavirus (APV) major capsid protein VP1 (avian polyomavirus (APV), strain BFDV-5) (UniProt P13891); experiment: negative-stain electron microscopy
[2] = biological target: avian polyomavirus (APV) major capsid protein VP1 (avian polyomavirus (APV), strain BFDV-5) (UniProt P13891); experiment: cryo-EM structure
cryo-EM structure = biological target: the molecule itself; experiment: cryo-EM structure

Molecule | stoichiometry N [1] | stoichiometry N [2] | binding result (cryo-EM structure)
avian polyomavirus (APV) major capsid protein VP1 (from UniProt P13891 1-343) (natural protein) | 5 | 5 | 
B1 |  |  | binds

Reference: article PMC3057058 (Virology, 2011)
